B1: Apt81 (ssDNA)
DNA: GGGAGATAGCCACGACCTATGCAGCCAGCCGCAGTGTAAGTGAATGCAGACATGGTCTAAGTGTCCAGGCTGTGCGAAAGC
B2: Apt44 (ssDNA)
DNA: CCGCACACCACGCGCATAATCCCGCGCACACGACTTGAAGTAGC

Target: recombinant activated coagulation factor VII (FVIIa, AryoSeven) (UniProt P08709;P08709 61-212;213-466)
Assay: fluorescence intensity change (FAM), plate reader; 5 mM Ca2+, 5 mM Mg2+; 40 mM Tris, 117 mM NaCl, 5 mM CaCl2, 5 mM MgCl2, pH 7.4; 1 nM protein, aptamer 100 pM-10 uM; 4 C, 1 h; errors are SE
Conditions: copies: 1;1, single strand, predicted partly folded

recombinant activated coagulation factor VII (FVIIa, AryoSeven), sequence (P08709 61-212, chain 1 of 2): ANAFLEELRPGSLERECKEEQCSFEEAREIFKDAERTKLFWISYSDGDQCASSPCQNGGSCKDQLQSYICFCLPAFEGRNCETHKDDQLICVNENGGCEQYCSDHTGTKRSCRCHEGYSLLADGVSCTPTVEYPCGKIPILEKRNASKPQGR
recombinant activated coagulation factor VII (FVIIa, AryoSeven), sequence (P08709 213-466, chain 2 of 2): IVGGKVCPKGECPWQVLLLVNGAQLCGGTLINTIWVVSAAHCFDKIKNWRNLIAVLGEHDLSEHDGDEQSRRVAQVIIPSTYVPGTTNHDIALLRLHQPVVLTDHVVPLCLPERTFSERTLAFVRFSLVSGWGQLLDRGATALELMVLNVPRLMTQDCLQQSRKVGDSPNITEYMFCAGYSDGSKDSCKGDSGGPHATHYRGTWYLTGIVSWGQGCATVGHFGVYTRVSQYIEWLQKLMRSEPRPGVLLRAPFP

Binder | Kd
B1 | 938 ± 149 nM
B2 | 167 ± 18 nM
